This passage reports EC50 and OD450 results from patent publication US20240101663A1.

Assay [1] has as its target CCDC112 on HCT116 tumor cells (including HCT116 cells stably overexpressing CCDC112) (human) (UniProt Q8NEF3). The assay can be described thus: flow cytometry on HCT116 cells overexpressing CCDC112; ambiguous fit of a flat control curve (see non_binding); table gives no unit, unit from the x axis. In general terms: In flow cytometry, cells or beads pass a laser one at a time.

In assay [2] the target is T1, CCDC112 recombinant protein (coiled-coil domain-containing protein 112) (human) (UniProt Q8NEF3).
T1 sequence: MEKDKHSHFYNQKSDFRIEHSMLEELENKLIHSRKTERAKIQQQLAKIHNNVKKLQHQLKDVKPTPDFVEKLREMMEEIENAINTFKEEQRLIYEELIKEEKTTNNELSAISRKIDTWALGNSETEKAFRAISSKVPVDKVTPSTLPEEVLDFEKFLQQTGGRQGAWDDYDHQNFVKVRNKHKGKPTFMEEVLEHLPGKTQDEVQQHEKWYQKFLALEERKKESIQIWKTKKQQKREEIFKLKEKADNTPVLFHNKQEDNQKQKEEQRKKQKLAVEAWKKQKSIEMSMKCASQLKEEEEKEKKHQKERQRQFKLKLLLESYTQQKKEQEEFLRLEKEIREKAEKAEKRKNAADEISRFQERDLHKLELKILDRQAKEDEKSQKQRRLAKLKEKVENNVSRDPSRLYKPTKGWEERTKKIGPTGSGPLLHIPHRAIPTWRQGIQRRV
The assay can be described thus: ELISA, coated CCDC112, LILRB2-hFc, 0 ug/mL CCDC112 antibody; number over the bar. (An ELISA detects its analyte on a solid surface through an enzyme-linked reagent.)

Chain of LILRB2-hFc (LILRB2 extracellular region protein fragment labeled with hFc) (Q8N423 22-460): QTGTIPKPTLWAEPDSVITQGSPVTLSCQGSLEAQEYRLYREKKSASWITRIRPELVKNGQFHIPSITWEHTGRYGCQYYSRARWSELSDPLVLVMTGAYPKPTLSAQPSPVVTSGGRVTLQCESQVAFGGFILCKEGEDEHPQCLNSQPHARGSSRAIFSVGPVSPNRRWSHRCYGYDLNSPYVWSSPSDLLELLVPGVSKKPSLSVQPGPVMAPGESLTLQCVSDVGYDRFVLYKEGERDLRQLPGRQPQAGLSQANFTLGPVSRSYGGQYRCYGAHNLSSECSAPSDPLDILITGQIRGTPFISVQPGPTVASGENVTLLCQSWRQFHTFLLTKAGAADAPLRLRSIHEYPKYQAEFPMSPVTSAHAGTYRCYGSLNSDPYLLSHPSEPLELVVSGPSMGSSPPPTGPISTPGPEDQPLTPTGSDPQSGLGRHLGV

Regarding mIgG1 (antibody), the EC50 in assay [1] stood at 44.9 nM.

Regarding “LILRB2-hFc (LILRB2 extracellular region protein fragment labeled with hFc) (from UniProt Q8N423 22-460) (Fc fusion)”, in assay [2], the OD450 worked out at 1.58 OD450.

As a reminder, the EC50 is the concentration at which the effect is half-maximal. Lower therefore signals a more potent agent.
